Reference: patent US20170362317A1 (FOUNTAIN BIOPHARMA, published 2017)

T1: recombinant human OSM (human, UniProt P13725 26-221, limits assumed)
T1 sequence (looked up): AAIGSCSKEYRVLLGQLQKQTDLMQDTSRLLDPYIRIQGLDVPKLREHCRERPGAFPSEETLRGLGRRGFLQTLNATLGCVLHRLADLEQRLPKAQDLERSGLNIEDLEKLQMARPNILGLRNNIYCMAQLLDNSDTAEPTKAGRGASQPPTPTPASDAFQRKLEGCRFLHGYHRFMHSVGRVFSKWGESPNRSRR

T2: recombinant human CNTF (human, UniProt P26441 2-200)
T2 sequence (looked up): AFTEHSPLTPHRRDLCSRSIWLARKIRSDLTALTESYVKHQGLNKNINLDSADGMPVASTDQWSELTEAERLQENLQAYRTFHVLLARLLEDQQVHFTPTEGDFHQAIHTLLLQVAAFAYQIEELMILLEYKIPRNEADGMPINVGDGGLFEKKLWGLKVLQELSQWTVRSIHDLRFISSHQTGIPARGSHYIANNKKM

T3: recombinant human IL3 (human, UniProt P08700 20-152)
T3 sequence (looked up): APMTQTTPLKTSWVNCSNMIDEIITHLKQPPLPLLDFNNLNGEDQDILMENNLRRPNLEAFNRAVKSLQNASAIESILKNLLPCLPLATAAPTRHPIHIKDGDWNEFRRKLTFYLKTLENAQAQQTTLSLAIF

T4: recombinant human IL17A (human, UniProt Q16552 20-155, limits assumed)
T4 sequence (looked up): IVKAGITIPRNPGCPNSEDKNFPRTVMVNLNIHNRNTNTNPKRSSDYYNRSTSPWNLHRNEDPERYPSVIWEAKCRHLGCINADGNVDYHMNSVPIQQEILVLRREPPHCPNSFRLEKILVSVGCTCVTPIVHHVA

T5: recombinant human IL11 (human, UniProt P20809 22-199)
T5 sequence (looked up): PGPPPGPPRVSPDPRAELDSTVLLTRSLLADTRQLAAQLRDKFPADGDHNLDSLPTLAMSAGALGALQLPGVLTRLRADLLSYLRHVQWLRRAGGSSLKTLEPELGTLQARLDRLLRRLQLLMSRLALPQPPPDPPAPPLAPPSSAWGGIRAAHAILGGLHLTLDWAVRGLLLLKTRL

T6: recombinant human IL4 (human, UniProt P05112 25-153)
T6 sequence (looked up): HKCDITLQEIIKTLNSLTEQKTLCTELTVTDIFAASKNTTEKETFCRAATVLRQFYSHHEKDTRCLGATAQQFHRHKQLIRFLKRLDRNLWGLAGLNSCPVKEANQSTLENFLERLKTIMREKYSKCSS

T7: recombinant human IL5 (human, UniProt P05113 20-134)
T7 sequence (looked up): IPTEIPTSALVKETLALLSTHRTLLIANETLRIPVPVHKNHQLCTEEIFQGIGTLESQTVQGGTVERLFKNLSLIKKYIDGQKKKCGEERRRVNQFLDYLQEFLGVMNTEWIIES

B1: Ag1-4-6 (fully human anti-IL6 IgG1 antibody) (antibody, V domains shown)
VH: EVQLVESGPALVKPTQTLTLTCTFSGFSLSTGGMSVSWIRQPPGKALEWLARIDWDDDKFYTPSLKTRLTISRDTSKNQVVLIMTNMDPVDTATYYCARMHIDDSNGYYSDAFHIWGQGTMVTVSS
VL: EIVLTQSPATLSVSPGERVTLSCRDSQSVSSTSLAWYQQKSGQAPRLLIYDTSNRATGIPARFSGGGSGTDFTLTISSLEPEDFAVYYCSFVSRPYPRFTFGQGTKVEIK
notes: also called FB704
B2: 1-4-62 (fully human anti-IL6 IgG1 antibody) (antibody, V domains shown)
VH: EVQLVESGPALVKPTQTLTLTCTFSGFSLSTGGMSVSWIRQPPGKALEWLARIDWDDDKFYTPSLKTRLTISRDTSKNQVVLIMTNMDPVDTATYYCARMHIDDSNGYYSDAFHIWGQGTMVTVSS
VL: EIVLTQSPATLSVSPGERVTLSCRDSQSVSSTSLAWYQQKSGQAPRLLIYDTSNRATGIPARFSGGGSGTDFTLTISSLEPEDFAVYYCLVRNNWPPRFTFGQGTKVEIK
notes: also called parent clone
B3: HAg1T-3-10 (fully human anti-IL6 IgG1 antibody) (antibody, V domains shown)
VH: EVQLVESGPALVKPTQTLTLTCTFSGFSLSTGGMSVSWIRQPPGKALEWLARIDWDDDKFYTPSLKTRLTISRDTSKNQVVLIMTNMDPVDTATYYCARMHIDDSNGYFSDAFHIWGQGTMVTVSS
VL: EIVLTQSPATLSVSPGERVTLSCRDSQSVSSTSLAWYQQKSGQAPRLLIYDTSNRATGIPARFSGGGSGTDFTLTISSLEPEDFAVYYCSFVSRPYPRFTFGQGTKVEIK
notes: also called HAgT1-3-10

What was measured:
[1] = target: T8, recombinant human interleukin-6 (IL6) (human, UniProt P05231 30-212); experiment: ELISA, plate coated with recombinant human IL6 at 2 µg/ml, FB704 in four-fold serial dilutions from 2 µg/ml, HRP-labeled goat anti-human IgG, A450
T8 construct: Bought recombinant protein; also called rhIL6; hIL6
Method: (§1) Plates were coated with recombinant human IL3, IL4, IL5, IL6, IL11, IL17A, CNTF, OSM, IGF-1 (R&D Systems), IL2, FGF (Prospec), VEGF, TNF-α, EGF (Peprotech) at 2 μg/ml in 0.1M NaHCO₃ buffer at 4° C. overnight. After being washed by PBS, the wells were blocked with 1% (w/v) BSA in PBS at RT for 1 h. Purified anti-IL6 antibodies in four-fold serial dilutions at a starting concentration of 2 μg/ml were placed into the wells and incubated at RT for 1 h. The plate was washed in PBS containing 0.1% (w/v) Tween 20 and then probed with HRP-labeled goat anti-human IgG (KPL) diluted 1:10,000 in 1% BSA-PBS for 40 min at RT. The plate was again washed and a TMB substrate solution was added to develop color. Stop solution (1M H₂SO₄) was then added and the absorption at 450 nm quantitated using VERSA max (Molecular Devices).
(§2) An ELISA assay as described herein was performed to confirm the binding specificity of high-affinity anti-IL6 antibodies described herein. Briefly, plates were coated with different cytokines as indicated in FIG. 3A (IL6 family cytokines) and FIG. 3B (non-IL6 family cytokines) and the binding activities of the FB704 antibody clone (i.e. Ag1-4-6) to those cytokines were examined.

recombinant human IGF-1 = recombinant human IGF-1 (human, UniProt P05019 49-118); experiment: ELISA, plate coated with the cytokine at 2 µg/ml, FB704 in four-fold serial dilutions, HRP-labeled goat anti-human IgG, A450 [Cont'd) B]
recombinant human IGF-1, sequence (P05019 49-118 limits assumed): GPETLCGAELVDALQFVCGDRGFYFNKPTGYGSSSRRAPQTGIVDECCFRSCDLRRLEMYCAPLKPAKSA
Method: as §1, §2

recombinant human EGF = recombinant human EGF (human, UniProt P01133 971-1023); experiment: as above
recombinant human EGF, sequence (P01133 971-1023 limits assumed): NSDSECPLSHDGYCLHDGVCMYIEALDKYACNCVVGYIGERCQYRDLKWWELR
Method: as §1, §2

recombinant human TNF-α = recombinant human TNF-α (human, UniProt P01375 77-233); experiment: as above
recombinant human TNF-α, sequence (P01375 77-233 limits assumed): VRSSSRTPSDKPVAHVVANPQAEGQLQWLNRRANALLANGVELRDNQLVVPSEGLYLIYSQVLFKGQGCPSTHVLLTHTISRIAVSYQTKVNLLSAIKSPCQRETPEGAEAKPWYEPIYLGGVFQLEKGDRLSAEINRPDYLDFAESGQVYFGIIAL
Method: as §1, §2

recombinant human VEGF = recombinant human VEGF (human, UniProt P15692-4 27-191, limits assumed); experiment: as above
recombinant human VEGF, sequence (P15692 other isoform, or with tags, fused parts or gaps limits assumed): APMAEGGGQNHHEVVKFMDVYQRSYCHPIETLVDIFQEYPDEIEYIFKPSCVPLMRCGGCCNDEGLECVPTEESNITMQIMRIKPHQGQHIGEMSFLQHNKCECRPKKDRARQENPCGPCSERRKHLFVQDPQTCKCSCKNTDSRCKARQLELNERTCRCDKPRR
Method: as §1, §2

[2] = target: T8, recombinant human interleukin-6 (IL6); experiment: cell-based or functional assay
[3] = target: T8, recombinant human interleukin-6 (IL6); experiment: ELISA, plate coated with recombinant human IL6 at 2 µg/ml, FB704 in four-fold serial dilutions from 2 µg/ml, HRP-labeled goat anti-human IgG, A450 [Cont'd) B]
Method: as §1, §2

[4] = target: T8, recombinant human interleukin-6 (IL6); experiment: cell-based or functional assay; remark: listed apart in the source
[5] = target: T8, recombinant human interleukin-6 (IL6); experiment: SPR (BIAcore T200), IgG captured by anti-human IgG, IL6 injected at 0.4-25.6 nM
Method: IgG binding affinity was measured by using human antibody capture kit (GE healthcare) in BIAcore T200 system (GE healthcare). The mouse anti-human IgG was immobilized on a CMS sensor chip via amine coupling. Approximately 700 RU of purified anti-IL6 IgG in HBS-EP+ buffer were captured onto the immobilized surface. The recombinant human IL6 (R&D Systems) at concentrations ranging from 25.6 nM to 0.4 nM in HBS-EP+ buffer was injected for 2 minutes using a flow rate of 30 μl/min. Dissociation of bound antigen in HBS⁻EP⁺ buffer flow was followed for 7 minutes. The surfaces IgG were regenerated after each cycle using regeneration solution (3M MgCl₂). The dissociation constant (KD) was calculated as kd/ka.

recombinant human OSM = target: T1, recombinant human OSM; experiment: ELISA, plate coated with the cytokine at 2 µg/ml, FB704 in four-fold serial dilutions, HRP-labeled goat anti-human IgG, A450
Method: as §1, §2

recombinant human CNTF = target: T2, recombinant human CNTF; experiment: as above
Method: as §1, §2

recombinant human IL3 = target: T3, recombinant human IL3; experiment: as above
Method: as §1, §2

recombinant human IL17A = target: T4, recombinant human IL17A; experiment: as above
Method: as §1, §2

recombinant human IL2 = recombinant human IL2 (human, UniProt P60568 21-153); experiment: as above
recombinant human IL2, sequence (P60568 21-153 limits assumed): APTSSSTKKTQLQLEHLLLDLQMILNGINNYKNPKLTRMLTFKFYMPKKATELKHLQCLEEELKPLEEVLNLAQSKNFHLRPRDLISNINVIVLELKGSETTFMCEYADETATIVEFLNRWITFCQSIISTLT
Method: as §1, §2

recombinant human IL11 = target: T5, recombinant human IL11; experiment: as above
Method: as §1, §2

recombinant human IL4 = target: T6, recombinant human IL4; experiment: as above
Method: as §1, §2

recombinant human IL5 = target: T7, recombinant human IL5; experiment: as above
Method: as §1, §2

Binder	EC50 (read off the curve) [1]	binding result (recombinant human IGF-1)	binding result (recombinant human EGF)	binding result (recombinant human TNF-α)	binding result (recombinant human VEGF)	inhibition percentage of control of STAT3 phosphorylation in U266 cells, antibody at 0.05 µg/ml [2]	inhibition percentage of control of STAT3 phosphorylation in U266 cells, antibody at 0.5 µg/ml [2]	EC50 (read off the curve) [3]	IC50 of inhibition of IL6-dependent B9 cell proliferation (WST-1, 72 h) [4]	Kd [5]	koff [5]	kon [5]	binding result (recombinant human OSM)	binding result (recombinant human CNTF)	binding result (recombinant human IL3)	binding result (recombinant human IL17A)	binding result (recombinant human IL2)	binding result (recombinant human IL11)	binding result (recombinant human IL4)	binding result (recombinant human IL5)
B1	~0.01 µg/mL	no binding (tested: 2 µg/ml)	no binding (tested: 2 µg/ml)	no binding (tested: 2 µg/ml)	no binding (tested: 2 µg/ml)	0%	60%	~0.01 µg/mL	0.0468 µg/mL	0.75 nM	0.00121 s⁻¹	1.61e+06 M⁻¹ s⁻¹	no binding (tested: 2 µg/ml)	no binding (tested: 2 µg/ml)	no binding (tested: 2 µg/ml)	no binding (tested: 2 µg/ml)	no binding (tested: 2 µg/ml)	no binding (tested: 2 µg/ml)	no binding (tested: 2 µg/ml)	no binding (tested: 2 µg/ml)
B2						0%	8%		0.618 µg/mL	3.85 nM	0.00166 s⁻¹	438000 M⁻¹ s⁻¹								
B3						49%	93%		0.00456 µg/mL	0.27 nM	0.0006 s⁻¹	2.24e+06 M⁻¹ s⁻¹								
